Results published in US20050059132A1.

What was measured:
[1] = biological target: human wild-type activated protein C (human) (UniProt P04070); assay: cell-based or functional assay
[2] = biological target: APC mutant QGNSEDY (ALL) (human) (UniProt P04070); assay: cell-based or functional assay
[3] = biological target: R506Q FVa (FVa Leiden, activated FV:Q506), P12259
[4] = biological target: human plasma factor Va (normal, wild-type), P12259
Chain of human plasma factor Va (normal, wild-type), P12259 (P12259 29-2224): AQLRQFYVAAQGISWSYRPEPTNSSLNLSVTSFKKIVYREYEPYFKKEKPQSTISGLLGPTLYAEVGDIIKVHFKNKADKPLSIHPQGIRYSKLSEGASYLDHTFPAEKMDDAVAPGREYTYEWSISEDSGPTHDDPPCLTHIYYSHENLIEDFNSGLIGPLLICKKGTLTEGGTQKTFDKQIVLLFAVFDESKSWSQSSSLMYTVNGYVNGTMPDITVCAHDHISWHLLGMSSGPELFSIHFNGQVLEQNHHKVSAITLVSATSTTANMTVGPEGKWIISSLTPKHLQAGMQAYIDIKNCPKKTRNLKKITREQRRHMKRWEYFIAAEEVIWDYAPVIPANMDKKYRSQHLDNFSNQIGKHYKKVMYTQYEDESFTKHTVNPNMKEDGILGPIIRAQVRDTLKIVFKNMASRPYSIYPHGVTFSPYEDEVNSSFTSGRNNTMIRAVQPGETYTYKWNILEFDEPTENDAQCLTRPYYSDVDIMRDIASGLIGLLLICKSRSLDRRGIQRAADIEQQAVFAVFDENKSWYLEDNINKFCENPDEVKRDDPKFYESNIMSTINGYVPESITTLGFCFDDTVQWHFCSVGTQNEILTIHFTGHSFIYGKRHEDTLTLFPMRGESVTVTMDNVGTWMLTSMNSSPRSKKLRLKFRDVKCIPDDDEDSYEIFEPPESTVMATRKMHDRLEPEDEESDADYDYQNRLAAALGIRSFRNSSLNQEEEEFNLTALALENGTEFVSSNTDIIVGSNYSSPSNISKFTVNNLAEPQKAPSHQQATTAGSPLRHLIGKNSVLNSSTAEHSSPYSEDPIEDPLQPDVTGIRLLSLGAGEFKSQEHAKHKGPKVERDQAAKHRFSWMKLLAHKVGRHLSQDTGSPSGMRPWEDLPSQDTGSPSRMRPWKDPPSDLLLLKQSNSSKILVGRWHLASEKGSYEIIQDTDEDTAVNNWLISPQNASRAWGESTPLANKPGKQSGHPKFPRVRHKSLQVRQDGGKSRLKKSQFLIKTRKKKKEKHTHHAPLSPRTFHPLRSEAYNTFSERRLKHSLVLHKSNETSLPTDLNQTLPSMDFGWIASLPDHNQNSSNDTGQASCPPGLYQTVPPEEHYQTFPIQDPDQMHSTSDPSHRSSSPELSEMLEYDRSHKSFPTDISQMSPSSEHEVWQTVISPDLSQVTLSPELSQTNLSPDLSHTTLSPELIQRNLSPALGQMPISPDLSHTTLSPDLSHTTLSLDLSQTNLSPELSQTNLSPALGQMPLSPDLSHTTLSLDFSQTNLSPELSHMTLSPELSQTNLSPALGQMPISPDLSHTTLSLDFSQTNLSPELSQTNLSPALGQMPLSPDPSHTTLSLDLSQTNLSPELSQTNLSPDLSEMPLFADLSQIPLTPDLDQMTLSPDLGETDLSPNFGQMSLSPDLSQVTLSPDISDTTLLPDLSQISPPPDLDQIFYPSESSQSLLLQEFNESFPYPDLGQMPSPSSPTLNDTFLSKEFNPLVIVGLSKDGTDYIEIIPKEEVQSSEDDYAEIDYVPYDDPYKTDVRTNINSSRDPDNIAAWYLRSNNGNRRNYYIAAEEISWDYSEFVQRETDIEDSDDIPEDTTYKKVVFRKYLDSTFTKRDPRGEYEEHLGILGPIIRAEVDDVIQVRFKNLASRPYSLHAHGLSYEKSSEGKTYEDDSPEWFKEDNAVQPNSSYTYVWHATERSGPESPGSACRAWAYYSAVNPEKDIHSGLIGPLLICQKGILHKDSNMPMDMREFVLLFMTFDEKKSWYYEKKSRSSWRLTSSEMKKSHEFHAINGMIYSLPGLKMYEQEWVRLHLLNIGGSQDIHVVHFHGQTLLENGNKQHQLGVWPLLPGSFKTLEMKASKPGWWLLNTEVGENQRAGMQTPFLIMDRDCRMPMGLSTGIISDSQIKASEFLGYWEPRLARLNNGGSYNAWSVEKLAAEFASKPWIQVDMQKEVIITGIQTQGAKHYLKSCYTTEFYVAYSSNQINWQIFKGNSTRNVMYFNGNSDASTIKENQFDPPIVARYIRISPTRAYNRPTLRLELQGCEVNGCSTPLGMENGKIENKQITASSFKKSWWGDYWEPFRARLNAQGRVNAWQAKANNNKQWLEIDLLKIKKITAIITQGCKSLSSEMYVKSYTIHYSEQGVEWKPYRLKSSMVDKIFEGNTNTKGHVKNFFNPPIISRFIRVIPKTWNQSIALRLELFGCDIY

Chain of R506Q FVa (FVa Leiden, activated FV:Q506), P12259 (P12259 29-2224 R534Q): as the sequence (P12259 29-2224) above, with R506Q counted along it

Molecule | APTT clotting time in protein S deficient plasma with 20 nM APC, at the highest protein S concentration [1] [s] | APTT clotting time in protein S deficient plasma with 20 nM APC, in absence of protein S [1] [s] | APTT clotting time in protein S deficient plasma with 20 nM APC, in absence of protein S [2] [s] | APTT clotting time in protein S deficient plasma with 20 nM APC, with protein S added [2] [s] | remaining FVa activity over time on incubation with 0.4 nM APC [3] | loss of FVa activity over time (FXa-mediated prothrombin activation assay) on incubation of 0.76 nM FVa with 0.39 nM APC [4]
human protein S (from UniProt P07225 42-676) | 150 | 100 | 160 | 350 |  | 
human wild-type activated protein C (protein) chain 1: ANSFLEELRHSSLERECIEEICDFEEAKEIFQNVDDTLAFWSKHVDGDQCLVLPLEHPCASLCCGHGTCIDGIGSFSCDCRSGWEGRFCQREVSFLNCSLDNGGCTHYCLEEVGWRRCSCAPGYKLGDDLLQCHPAVKFPCGRPWKRMEKKRSHL chain 2: LIDGKMTRRGDSPWQVVLLDSKKKLACGAVLIHPSWVLTAAHCMDESKKLLVRLGEYDLRRWEKWELDLDIKEVFVHPNYSKSTTDNDIALLHLAQPATLSQTIVPICLPDSGLAERELNQAGQETLVTGWGYHSSREKEAKRNRTFVLNFIKIPVVPHNECSEVMSNMVSENMLCAGILGDRQDACEGDSGGPMVASFHGTWFLVGLVSWGEGCGLLHNYGVYTKVSRYLDWIHGHIRDKEAPQKSWAP |  |  |  |  | a slow decrease in FVa activity | the initial rapid loss of FVa activity that is observed during the first 5 minutes of incubation
